Test results as given in publication doi:10.1101/2024.07.02.601760, “Multi-dimensional demarcation of phylogenetic groups of plant 14-3-3 isoforms using biochemical signatures” (bioRxiv, 2024).

Molecular target: the molecule itself
Test: SEC-MALS; Superdex 200 Increase 10/300, 0.8 ml/min; 65 µl of ~3 mg/ml or 100 μM per monomer loaded; 20 mM Tris-HCl pH 7.5, 150 mM NaCl, 5 mM βME, 3 mM NaN3; samples before preparative SEC; self-association, monomers to dimer (small tetramer peak for six isoforms)

B1: Arabidopsis thaliana 14-3-3 omicron (natural protein, UniProt Q9S9Z8 1-252, looked up)
chain: MENERAKQVYLAKLNEQAERYDEMVEAMKKVAALDVELTIEERNLLSVGYKNVIGARRASWRILSSIEQKEESKGNEQNAKRIKDYRTKVEEELSKICYDILAVIDKHLVPFATSGESTVFYYKMKGDYFRYLAEFKSGADREEAADLSLKAYEAATSSASTELSTTHPIRLGLALNFSVFYYEILNSPERACHLAKRAFDEAIAELDSLNEDSYKDSTLIMQLLRDNLTLWTSDLEEGGEQSKGHNQQDEN
notes: 14-3-3 omicron, Arabidopsis thaliana, epsilon group; construct provided by Prof; Robert J. Ferl; source: E. coli C41(DE3), purified (IMAC, thrombin cleavage of the His6-tag, subtractive IMAC, preparative SEC; aliquots before preparative SEC for SEC-MALS)
stoichiometry N: 2
